Experimental data reported in article PMC6778125, “Cryo-EM structure of the bacterial Ton motor subcomplex ExbB–ExbD provides information on structure and stoichiometry” (Communications Biology, 2019).
Each block holds one molecule with its values, some of them ahead of it.

Experiments:
ExbD = ExbD (UniProt P0ABV2); assay: cryo-EM structure; single particle cryo-EM of the co-expressed, purified full-length ExbB-ExbD complex in lipid nanodiscs (MSP1E3D1, E. coli polar lipid extract); Tris 25 mM pH7.4 NaCl 200 mM; C1 symmetry, 3.3 Å
[1] = molecular target: the molecule itself; assay: as above

stoichiometry N (ExbD): 2
Molecule: ExbD (from UniProt P0ABV2 1-141) (natural protein)

B1: ExbB (natural protein, UniProt P0ABU7 1-244, looked up)
chain: MGNNLMQTDLSVWGMYQHADIVVKCVMIGLILASVVTWAIFFSKSVEFFNQKRRLKREQQLLAEARSLNQANDIAADFGSKSLSLHLLNEAQNELELSEGSDDNEGIKERTSFRLERRVAAVGRQMGRGNGYLATIGAISPFVGLFGTVWGIMNSFIGIAQTQTTNLAVVAPGIAEALLATAIGLVAAIPAVVIYNVFARQIGGFKAMLGDVAAQVLLLQSRDLDLEASAAAHPVRVAQKLRAG
notes: ExbB, inner membrane subunit of the Ton complex, 244 residues, three TM helices; native exbB, no tag; also called native ExbB; ExbB pentamer; source: reconstituted in lipid nanodiscs (MSP1E3D1, E. coli polar lipid extract)
stoichiometry N [1]: 5
